Measured values from patent US20040265915A1, “Method to identify regulators of cellular activation using Bcl10” (priority 2003, published 2004).

Test system: Bcl10-YFP POLKADOTS formation
Assay: Bcl10-YFP POLKADOTS formation in antigen-stimulated D10 T cells, fluorescence microscopy
Format: cell-based, murine
Details: D10 T cells with conalbumin-loaded CH12 B cells (100 μg/ml), fixed after 20 min, >200 T cells counted, FIG. 4
Description: D10-IL2 (henceforth referred to as D10) is an IL-2 dependent subclone of the CD4^+ T cell clone D10 (16), maintained as described (17). Primary T cell blasts were prepared by stimulation of spleen and lymph node cells with 100 μg/ml plate-bound anti-TCRP for 48 hr, with IL-2 added for the final 24 hr of stimulation. CH12H-2^k B cells and CHb H-2^b B cells (18) were maintained as described previously (17).
Murine PKCθ was fused to a C-terminal linker (GRVELGR; SEQ ID NO:7) followed by GFP or CFP (19), modified by mutations that improve folding at 37° C. (20). Two I.M.A.G.E. expressed sequence tag (EST) clones encoding murine Bcl10 were purchased (2123397 and 3026026; ResGen). Clone 3026026 was used for PCR amplification of Bc 10, adding the C-terminal linker GR, which was then fused to the previously described modified YFP gene (17). […]
The inventors next examined whether formation of Bcl10 POLKADOTS is PKC-dependent (FIG. 4 and FIG. 5). […] Cells were fixed after 20 minutes and examined by fluorescence microscopy. For each group, >200 T cells were counted, and percentages with and without POLKADOTS were determined.
CH12 B cells that had been pre-incubated with no antigen or with 250 μg/ml conalbumin protein were then added. Cells were fixed after 30 min and examined by fluorescence microscopy. […]

B1: conalbumin: conalbumin protein, specific antigen loaded on CH12 B cells to stimulate D10 T cells (protein, UniProt P02789 20-705, looked up)
Ovotransferrin: APPKSVIRWCTISSPEEKKCNNLRDLTQQERISLTCVQKATYLDCIKAIANNEADAISLDGGQAFEAGLAPYKLKPIAAEVYEHTEGSTTSYYAVAVVKKGTEFTVNDLQGKTSCHTGLGRSAGWNIPIGTLLHRGAIEWEGIESGSVEQAVAKFFSASCVPGATIEQKLCRQCKGDPKTKCARNAPYSGYSGAFHCLKDGKGDVAFVKHTTVNENAPDQKDEYELLCLDGSRQPVDNYKTCNWARVAAHAVVARDDNKVEDIWSFLSKAQSDFGVDTKSDFHLFGPPGKKDPVLKDLLFKDSAIMLKRVPSLMDSQLYLGFEYYSAIQSMRKDQLTPSPRENRIQWCAVGKDEKSKCDRWSVVSNGDVECTVVDETKDCIIKIMKGEADAVALDGGLVYTAGVCGLVPVMAERYDDESQCSKTDERPASYFAVAVARKDSNVNWNNLKGKKSCHTAVGRTAGWVIPMGLIHNRTGTCNFDEYFSEGCAPGSPPNSRLCQLCQGSGGIPPEKCVASSHEKYFGYTGALRCLVEKGDVAFIQHSTVEENTGGKNKADWAKNLQMDDFELLCTDGRRANVMDYRECNLAEVPTHAVVVRPEKANKIRDLLERQEKRFGVNGSEKSKFMMFESQNKDLLFKDLTKCLFKVREGTTYKEFLGDKFYTVISSLKTCNPSDILQMCSFLEGK
cells with Bcl10-YFP POLKADOTS: over 80%
